From EP4580670A2

Biological target: CH848 day 949 SOSIP Env trimer (soluble SOSIP trimer derived from a virus isolated from the CH848 individual at day 949 post infection) (HIV-1)
Assay: method not stated; affinities shown in Figure 1B; reference DH270 UCA

DH270.I5 Fab
fold improvement of Env binding affinity relative to the UCA: 8 fold
